# In paper PMC4287183, “Affinity maturation of Cry1Aa toxin to the Bombyx mori cadherin-like receptor by directed evolution based on phage display and biopanning selections of domain II loop 2 mutant toxins” (MicrobiologyOpen, 2014):
# B1: Cry1Aa toxin-binding region of Bombyx mori cadherin-like receptor BtR175 (BtR175-TBR) (domain or fragment)
# chain: ELVIRPYNFHAPVFVFPKHGATLRLARERAVVNGLLATVDGEFLNRIVATDEDGLHAGQVAFEVVGDTEAVDYFHIVNDGENSGTLMLKQLFPEDIREFEVTIRATDGGTEPRPLSTDCTFSVVFVPIQGEPIFPTSTHTVAFIEKEAGLLERHELPRAEDRKNHLCSDDCHNIYYRIIDGNNDGHFGLDETTNVLFLVKELDRSVSETYTLTIAASNSPTGGIALTSTITITVNVREADPQPYFVRDLYTAGISTSDSINRELLILQATHSENAPIIYTIDWSTMVTDPTLASVRETAFILNPHTGVLTLNIQPTASMHGMFEFQVVATDPAGYSDRANVKIYLISTRNRVFFLFV
# notes: The limits are stated for the GST fusion used in biopanning; also called GST-BtR175-TBR; source: prepared as described previously (Fujii et al. 2013); GST-BtR175-TBR from pGEX4t-3, harvested as inclusion bodies and solubilized
# Experiments:
# [1] = biological target: Cry1Aa toxin-binding region of Bombyx mori cadherin-like receptor BtR175 (BtR175-TBR) (Bombyx mori) (UniProt Q9XY09); assay: SPR; BtR175-TBR immobilized on a CM5 chip by amine coupling (Biacore J); four concentrations of toxin in PBST (0.005% Tween, pH 7.4) for 120 sec, dissociation 240 sec; 1:1 Langmuir model, global fitting; KD = kd/ka
# [2] = biological target: wild-type Cry1Aa toxin (trypsin-activated) (B. thuringiensis subsp. kurstaki strain …, UniProt P0A366 1-1176, Trypsin-activated toxin core, unmutated wild type. Limits are not printed: the N-terminus at Ile29 follows the conventional trypsin cut after Arg28 (and the IETGYTP start in the phage-display primer),); assay: as above; conditions: both partners purified
Molecule,Kd [1],koff [1],Kd [2],koff [2]
Cry1Aa domain II loop 2 mutant toxin 371WRPQ374 (trypsin-activated) (from UniProt P0A366 1-1176) (ligand),0.5 nM,0.00102 s⁻¹,–,–
Cry1Aa domain II loop 2 mutant toxin 371WGLA374 (trypsin-activated) (from UniProt P0A366 1-1176) (ligand),1.56 nM,0.00061 s⁻¹,–,–
Cry1Aa domain II loop 2 mutant toxin 371PHRP374 (trypsin-activated) (from UniProt P0A366 1-1176) (ligand),8.3 nM,0.00122 s⁻¹,–,–
Cry1Aa domain II loop 2 mutant toxin 371WPHH374 (trypsin-activated) (from UniProt P0A366 1-1176) (ligand),1.55 nM,0.00066 s⁻¹,–,–
B1,–,–,25 nM,0.00267 s⁻¹
